Experimental data from the supplement of paper PMC9732359.
± gives the uncertainty stated by the source.

Assay: protein stability index of a GFP-peptide fusion (yeast GPS) (PSI 1-4); higher = more stable; sorted into four equal gates, so the index is relative within each strain
Outline: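 Plasmids isolated from each sorting gate were PCR-amplified and Illumina-sequenced, and barcodes assigned the reads to strains. The gates, four of equal size, were set by GFP/Cherry fluorescence ratio on mid-log cultures in leucine-free medium. These cultures were yeast carrying a pooled library of tiled 17-residue yeast protein peptides fused downstream of GFP on a plasmid that also expresses Cherry. The protein stability index is the sum of every gate's read frequency times its gate number.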

In the case of KRDQYLKSASKETAPVI [RPL28], the protein stability index (doa10∆) is reported as 2.7 ± 0.12, the protein stability index (pdr5∆) is reported as 2.69 ± 0.12 and the protein stability index (san1∆) is reported as 2.59 ± 0.065. The protein stability index (ubr1∆) was 2.43 ± 0.13.

Work on KRGEVVKIIRKSETSGR [RPB5] yielded a protein stability index (doa10∆) of 3.04 ± 0.082, a protein stability index (pdr5∆) of 3.17 ± 0.057 and a protein stability index (san1∆) of 3.2 ± 0.064. It also gave a protein stability index (ubr1∆) of 3.05 ± 0.058.

Sequence KRKTNIIMFVGLQGSGK [SRP54] has a protein stability index (doa10∆) of 2.69 ± 0.067, a protein stability index (pdr5∆) of 2.78 ± 0.068 and a protein stability index (san1∆) of 3.09 ± 0.06. For the same sequence, the protein stability index (ubr1∆) was 2.87 ± 0.038.

For KRNKYAAMLTSENAREI [RRP45], the protein stability index (doa10∆) was 3.04 ± 0.063, the protein stability index (pdr5∆) was 3.1 ± 0.063 and the protein stability index (san1∆) was 3.08 ± 0.057. It also gave a protein stability index (ubr1∆) of 2.96 ± 0.043.

With KRNSDKVEYKIVHDDPA [ITC1] the protein stability index (doa10∆) was 2.12 ± 0.072, the protein stability index (pdr5∆) was 2.02 ± 0.083 and the protein stability index (san1∆) was 1.95 ± 0.13. For the same sequence, the protein stability index (ubr1∆) was 1.27 ± 0.053.

In the case of KRPPEIMSTEAHVNKVT [SIR4], the protein stability index (doa10∆) is reported as 2.99 ± 0.19, the protein stability index (pdr5∆) is reported as 2.96 ± 0.086 and the protein stability index (san1∆) is reported as 2.92 ± 0.1. It also gave a protein stability index (ubr1∆) of 2.73 ± 0.12.

With KRQFNNSYWLIILLGVL [ITC1] the protein stability index (doa10∆) was 2.16 ± 0.066, the protein stability index (pdr5∆) was 1.6 ± 0.056 and the protein stability index (san1∆) was 1.5 ± 0.1. It also gave a protein stability index (ubr1∆) of 1.97 ± 0.04.

Sequence KRQYVKQFLTKDLKFPL [RPL20A] has a protein stability index (doa10∆) of 3 ± 0.055, a protein stability index (pdr5∆) of 2.94 ± 0.061 and a protein stability index (san1∆) of 2.76 ± 0.063. The protein stability index (ubr1∆) was 2.83 ± 0.04.

KRRIEEEQEKINSAPDF [ISW2] showed a protein stability index (doa10∆) of 3.4 ± 0.2, a protein stability index (pdr5∆) of 3.58 ± 0.22 and a protein stability index (san1∆) of 2.98 ± 0.15. The protein stability index (ubr1∆) was 3.57 ± 0.099.

For KRSGVIETVDDKLKDIV [ITC1], the protein stability index (doa10∆) was 3.15 ± 0.29 and the protein stability index (pdr5∆) was 3 ± 0.3.

Sequence KRVPNPNFLGNCNIKDF [SWP82] has a protein stability index (doa10∆) of 2.05 ± 0.051, a protein stability index (pdr5∆) of 2.36 ± 0.04 and a protein stability index (san1∆) of 2 ± 0.056. The protein stability index (ubr1∆) was 2.22 ± 0.032.

In the case of KRVTIQKKDIKLARRLR [HHT1], the protein stability index (doa10∆) is reported as 3.15 ± 0.14, the protein stability index (pdr5∆) is reported as 2.87 ± 0.17 and the protein stability index (ubr1∆) is reported as 3.05 ± 0.088.

For KRYRLKESQLPRIQRAD [RPB5], the protein stability index (doa10∆) was 2.86 ± 0.17, the protein stability index (pdr5∆) was 3.16 ± 0.15 and the protein stability index (san1∆) was 3.02 ± 0.1. It also gave a protein stability index (ubr1∆) of 3.07 ± 0.082.

KSESDELQMRSFLKEGD [RRP4] gave a protein stability index (doa10∆) of 3.18 ± 0.13, a protein stability index (pdr5∆) of 2.71 ± 0.23 and a protein stability index (san1∆) of 3.09 ± 0.12. The protein stability index (ubr1∆) was 3.16 ± 0.096.

KSFISKLLGIGDIESLF [SRP54] showed a protein stability index (doa10∆) of 1.56 ± 0.061, a protein stability index (pdr5∆) of 1.82 ± 0.077 and a protein stability index (san1∆) of 2.2 ± 0.12. The protein stability index (ubr1∆) was 2.1 ± 0.12.

Sequence KSIDSKTPEEVEVYAKI [ISW2] has a protein stability index (doa10∆) of 1.88 ± 0.078, a protein stability index (san1∆) of 2.88 ± 0.14 and a protein stability index (ubr1∆) of 3.01 ± 0.12.

With KSITLKGRNNESNNKKY [YDL088C/ASM4] the protein stability index (doa10∆) was 3.19 ± 0.086, the protein stability index (pdr5∆) was 3.11 ± 0.066 and the protein stability index (san1∆) was 3.13 ± 0.059. It also gave a protein stability index (ubr1∆) of 3.08 ± 0.064.

With KSLAMEHKSQVVLYNYY [CSN12] the protein stability index (doa10∆) was 1.19 ± 0.053, the protein stability index (pdr5∆) was 1.34 ± 0.071 and the protein stability index (san1∆) was 1.32 ± 0.11. The protein stability index (ubr1∆) was 1.55 ± 0.035.

For KSLDSIPMSKTIKDLVG [FAS2], the protein stability index (doa10∆) was 3.26 ± 0.12, the protein stability index (pdr5∆) was 2.97 ± 0.092 and the protein stability index (san1∆) was 2.79 ± 0.13. For the same sequence, the protein stability index (ubr1∆) was 3.16 ± 0.075.

With KSLGGGAALKDIEIVRV [FAS2] the protein stability index (doa10∆) was 2.27 ± 0.26, the protein stability index (pdr5∆) was 3.39 ± 0.15 and the protein stability index (san1∆) was 3.17 ± 0.088.

KSLHEMNERDWRILKED [PRP28] gave a protein stability index (doa10∆) of 3.4 ± 0.19, a protein stability index (pdr5∆) of 3.05 ± 0.2 and a protein stability index (san1∆) of 3.33 ± 0.072. The protein stability index (ubr1∆) was 3.01 ± 0.23.

KSMNKSAINQYNRRQDK [SNF2] gave a protein stability index (doa10∆) of 2.26 ± 0.075, a protein stability index (pdr5∆) of 2.63 ± 0.082 and a protein stability index (san1∆) of 2.44 ± 0.058. For the same sequence, the protein stability index (ubr1∆) was 2.48 ± 0.083.

KSRIVKVVGPRGTLTKN [RPL9A] showed a protein stability index (doa10∆) of 2.66 ± 0.074, a protein stability index (pdr5∆) of 2.92 ± 0.058 and a protein stability index (san1∆) of 2.65 ± 0.052. For the same sequence, the protein stability index (ubr1∆) was 2.71 ± 0.033.

Sequence KSTASTAAANTEKLSNG [YOR098C/NUP1] has a protein stability index (doa10∆) of 2.91 ± 0.23, a protein stability index (pdr5∆) of 3.11 ± 0.16 and a protein stability index (san1∆) of 3.1 ± 0.12. It also gave a protein stability index (ubr1∆) of 3.31 ± 0.091.

KSTTPYVSALKRINKFL [POP7] gave a protein stability index (doa10∆) of 2.04 ± 0.047, a protein stability index (pdr5∆) of 1.55 ± 0.036 and a protein stability index (san1∆) of 2 ± 0.067. For the same sequence, the protein stability index (ubr1∆) was 1.63 ± 0.034.

KSVKFVQGLLQNAAANA [RPL17A] gave a protein stability index (doa10∆) of 2.56 ± 0.065, a protein stability index (pdr5∆) of 2.65 ± 0.068 and a protein stability index (san1∆) of 2.28 ± 0.05. It also gave a protein stability index (ubr1∆) of 2.46 ± 0.034.

Work on KSVYETPKITAAEKSFK [SEC65] yielded a protein stability index (pdr5∆) of 2.08 ± 0.19 and a protein stability index (ubr1∆) of 1.53 ± 0.08.

KTEDGFVIPALPAAVSK [RPC82] showed a protein stability index (pdr5∆) of 2.41 ± 0.26 and a protein stability index (ubr1∆) of 2.8 ± 0.2.
